Experimental data taken from patent US20220411483A1 (Chugai, published 2022).

T1: FcγRIIa H type extracellular domain with C-terminal His tag (human, UniProt P12318 34-217)
T1 construct: extracellular domain; also called FcgRIIaH; not shown: His tag at the C terminus
T1 sequence (looked up): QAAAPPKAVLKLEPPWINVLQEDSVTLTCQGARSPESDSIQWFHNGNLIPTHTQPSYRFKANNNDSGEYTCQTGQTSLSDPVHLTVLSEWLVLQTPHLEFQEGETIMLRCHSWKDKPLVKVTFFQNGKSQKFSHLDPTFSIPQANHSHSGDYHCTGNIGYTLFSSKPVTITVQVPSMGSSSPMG

T2: FcγRIIa R type extracellular domain with C-terminal His tag (human, UniProt P12318 34-217)
T2 construct: extracellular domain; also called FcgRIIaR; not shown: His tag at the C terminus
T2 sequence (looked up): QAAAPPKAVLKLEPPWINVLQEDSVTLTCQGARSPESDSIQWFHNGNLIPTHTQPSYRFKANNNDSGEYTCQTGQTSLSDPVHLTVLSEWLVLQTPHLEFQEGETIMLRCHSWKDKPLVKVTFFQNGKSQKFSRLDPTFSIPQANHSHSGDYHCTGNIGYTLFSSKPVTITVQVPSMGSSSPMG

T3: FcγRIIb extracellular domain with C-terminal His tag (human, UniProt P31994 43-217)
T3 construct: extracellular domain; also called FcgRIIb; not shown: His tag at the C terminus
T3 sequence (looked up): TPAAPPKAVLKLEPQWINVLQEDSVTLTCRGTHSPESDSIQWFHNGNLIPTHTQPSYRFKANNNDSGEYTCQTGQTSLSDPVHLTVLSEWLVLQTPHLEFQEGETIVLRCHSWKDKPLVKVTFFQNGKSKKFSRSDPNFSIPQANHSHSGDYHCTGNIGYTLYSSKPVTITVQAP

T4: FcγRIIa H type extracellular domain, His tag (human, UniProt P12318 34-217)
T4 construct: extracellular domain; also called FcgRIIaH
T4 sequence (looked up): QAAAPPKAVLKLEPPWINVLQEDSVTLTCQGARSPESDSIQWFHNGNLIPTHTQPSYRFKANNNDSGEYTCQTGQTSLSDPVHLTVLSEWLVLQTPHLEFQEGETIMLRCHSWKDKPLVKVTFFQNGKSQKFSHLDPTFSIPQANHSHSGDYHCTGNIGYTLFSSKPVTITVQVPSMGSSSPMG

T5: FcγRIIa R type extracellular domain, His tag (human, UniProt P12318 34-217)
T5 construct: extracellular domain; also called FcgRIIaR
T5 sequence (looked up): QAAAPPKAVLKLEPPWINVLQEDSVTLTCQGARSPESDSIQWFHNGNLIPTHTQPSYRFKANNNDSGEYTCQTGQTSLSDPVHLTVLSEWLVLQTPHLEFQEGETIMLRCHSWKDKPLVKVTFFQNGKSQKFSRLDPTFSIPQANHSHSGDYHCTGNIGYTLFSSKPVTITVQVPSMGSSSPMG

T6: FcγRIIb extracellular domain, His tag (human, UniProt P31994 43-217)
T6 construct: extracellular domain; also called FcgRIIb
T6 sequence (looked up): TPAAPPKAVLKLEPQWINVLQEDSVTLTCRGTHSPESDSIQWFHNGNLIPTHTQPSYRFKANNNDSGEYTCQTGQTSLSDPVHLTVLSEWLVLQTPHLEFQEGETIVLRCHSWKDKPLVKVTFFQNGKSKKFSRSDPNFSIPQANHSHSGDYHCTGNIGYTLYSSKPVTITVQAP


Experiments:
[1] = target: T1, FcγRIIa H type extracellular domain …; test: SPR, antibody captured, FcgR analyte
[2] = target: T2, FcγRIIa R type extracellular domain …; test: SPR, antibody captured, FcgR analyte
[3] = target: T3, FcγRIIb extracellular domain with …; test: SPR, antibody captured, FcgR analyte
[4] = target: T7, FcγRIa extracellular domain with C-terminal His tag (human, UniProt P12314 16-292); test: SPR, antibody captured, FcgR analyte
T7 construct: also called FcgRIa; CD64; not shown: His tag at the C terminus
T7 sequence (P12314 16-292): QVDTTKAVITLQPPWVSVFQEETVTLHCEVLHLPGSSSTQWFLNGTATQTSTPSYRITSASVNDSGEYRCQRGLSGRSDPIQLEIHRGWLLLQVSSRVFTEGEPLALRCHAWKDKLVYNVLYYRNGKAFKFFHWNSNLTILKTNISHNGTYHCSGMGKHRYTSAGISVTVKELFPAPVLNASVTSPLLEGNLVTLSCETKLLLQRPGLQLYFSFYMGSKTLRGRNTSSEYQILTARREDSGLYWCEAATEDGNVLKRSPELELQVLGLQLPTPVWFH

[5] = target: T4, FcγRIIa H type extracellular domain, …; test: SPR, KD ratio
[6] = target: T5, FcγRIIa R type extracellular domain, …; test: SPR, KD ratio
[7] = target: T8, FcγRIa extracellular domain, His tag (human, UniProt P12314 16-292); test: SPR, KD ratio
T8 construct: whole entry named; also called FcgRIa
T8 sequence (P12314 16-292): as above

[8] = target: T9, FcγRIIIa V type extracellular domain, His tag (human, UniProt P08637 17-208); test: SPR, KD ratio
T9 construct: extracellular domain; also called FcgRIIIaV
T9 sequence (P08637 17-208 F176V): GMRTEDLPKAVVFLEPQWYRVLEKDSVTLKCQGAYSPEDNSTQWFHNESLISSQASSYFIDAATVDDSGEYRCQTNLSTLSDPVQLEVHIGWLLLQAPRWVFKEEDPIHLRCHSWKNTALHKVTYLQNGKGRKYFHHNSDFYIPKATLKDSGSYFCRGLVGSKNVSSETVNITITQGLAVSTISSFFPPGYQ

[9] = target: T6, FcγRIIb extracellular domain, His tag; test: SPR, KD ratio
[10] = target: T5, FcγRIIa R type extracellular domain, …; test: SPR, bound amount per captured antibody
[11] = target: T6, FcγRIIb extracellular domain, His tag; test: SPR, bound amount per captured antibody

Binder | Kd [1] | Kd [2] | Kd [3] | Kd [4] | Relative FcgRIIaH-binding Activity [5] | Relative FcgRIIaR-binding Activity [6] | Relative FcgRIa-binding Activity [7] | Relative FcgRIIIaV-binding Activity [8] | Relative FcgRIIb-binding Activity [9] | Relative FcgRIIaR-binding Activity [10] | Relative FcgRIIb-binding Activity [11]
IL6R-BP438/IL6R-L (antibody, human IgG1, kappa, name in EU numbering, human IgG1) heavy: QVQLQESGPGLVKPSETLSLTCAVSGHSISHDHAWSWVRQPPGEGLEWIGFISYSGITNYNPSLQGRVTISRDNSKNTLYLQMNSLRAEDTAVYYCARSLARTTAMDYWGEGTLVTVSSASTKGPSVFPLAPSSKSTSGGTAALGCLVKDYFPEPVTVSWNSGALTSGVHTFPAVLQSSGLYSLSSVVTVPSSSLGTQTYICNVNHKPSNTKVDKKVEPKSCDKTHTCPPCPAPDLLGDDSVFLFPPKPKDTLMISRTPEVTCVVVDVAEEDGEVKFNWYVDGVEVHNAKTKPREEQYNSTYRVVSVLTVLHQDWLNGKEYKCKVSNKALPRPTEKTISKAKGQPREPQVYTLPPSRDELTKNQVSLTCLVKGFYPSDIAVEWESNGQPENNYKTTPPVLDSDGSFFLYSKLTVDKSRWQQGNVFSCSVMHEALHNHYTQESLSLSP light: not shown | 1600 nM | 180 nM |  |  |  |  |  |  |  |  | 
IL6R-BP558/IL6R-L (antibody, human IgG1, kappa, name in EU numbering, human IgG1) heavy: QVQLQESGPGLVKPSETLSLTCAVSGHSISHDHAWSWVRQPPGEGLEWIGFISYSGITNYNPSLQGRVTISRDNSKNTLYLQMNSLRAEDTAVYYCARSLARTTAMDYWGEGTLVTVSSASTKGPSVFPLAPSSKSTSGGTAALGCLVKDYFPEPVTVSWNSGALTSGVHTFPAVLQSSGLYSLSSVVTVPSSSLGTQTYICNVNHKPSNTKVDKKVEPKSCDKTHTCPPCPAPELLGDDSVFLFPPKPKDTLMISRTPEVTCVVIDVGEEDGDVKFNWYVDGVEVHNAKTKPREEQYNSTYRVVSVLTVLHQDWLNGKEYKCKVSNKALPRPIEKTISKAKGQPREPQVYTLPPSRDELTKNQVSLTCLVKGFYPSDIAVEWESNGQPENNYKTTPPVLDSDGSFFLYSKLTVDKSRWQQGNVFSCSVMHEALHNHYTQESLSLSP light: not shown | 4900 nM | 330 nM | 9 nM |  |  |  |  |  |  |  | 
IL6R-BP554/IL6R-L (antibody, human IgG1, kappa, name in EU numbering, human IgG1) heavy: QVQLQESGPGLVKPSETLSLTCAVSGHSISHDHAWSWVRQPPGEGLEWIGFISYSGITNYNPSLQGRVTISRDNSKNTLYLQMNSLRAEDTAVYYCARSLARTTAMDYWGEGTLVTVSSASTKGPSVFPLAPSSKSTSGGTAALGCLVKDYFPEPVTVSWNSGALTSGVHTFPAVLQSSGLYSLSSVVTVPSSSLGTQTYICNVNHKPSNTKVDKKVEPKSCDKTHTCPPCPAPELLGDDSVFLFPPKPKDTLMISRTPEVTCVVIDVAEEDGDVKFNWYVDGVEVHNAKTKPREEQYNSTYRVVSVLTVLHQDWLNGKEYKCKVSNKALPRPIEKTISKAKGQPREPQVYTLPPSRDELTKNQVSLTCLVKGFYPSDIAVEWESNGQPENNYKTTPPVLDSDGSFFLYSKLTVDKSRWQQGNVFSCSVMHEALHNHYTQESLSLSP light: not shown | 2300 nM |  |  | 8 nM |  |  |  |  |  |  | 
IL6R-BP510/IL6R-L (antibody, human IgG1, kappa, name in EU numbering, human IgG1) heavy: QVQLQESGPGLVKPSETLSLTCAVSGHSISHDHAWSWVRQPPGEGLEWIGFISYSGITNYNPSLQGRVTISRDNSKNTLYLQMNSLRAEDTAVYYCARSLARTTAMDYWGEGTLVTVSSASTKGPSVFPLAPSSKSTSGGTAALGCLVKDYFPEPVTVSWNSGALTSGVHTFPAVLQSSGLYSLSSVVTVPSSSLGTQTYICNVNHKPSNTKVDKKVEPKSCDKTHTCPPCPAPELLGDDSVFLFPPKPKDTLMISRTPEVTCVVIDVAEEDGPVKFNWYVDGVEVHNAKTKPREEQYNSTYRVVSVLTVLHQDWLNGKEYKCKVSNKALPRPIEKTISKAKGQPREPQVYTLPPSRDELTKNQVSLTCLVKGFYPSDIAVEWESNGQPENNYKTTPPVLDSDGSFFLYSKLTVDKSRWQQGNVFSCSVMHEALHNHYTQESLSLSP light: not shown | 4000 nM |  | 3.8 nM | 6 nM |  |  |  |  |  |  | 
IL6R-P734/IL6R-L (antibody, human IgG1, kappa) heavy: QVQLQESGPGLVKPSETLSLTCAVSGHSISHDHAWSWVRQPPGEGLEWIGFISYSGITNYNPSLQGRVTISRDNSKNTLYLQMNSLRAEDTAVYYCARSLARTTAMDYWGEGTLVTVSSASTKGPSVFPLAPSSKSTSGGTAALGCLVKDYFPEPVTVSWNSGALTSGVHTFPAVLQSSGLYSLSSVVTVPSSSLGTQTYICNVNHKPSNTKVDKKVEPKSCDKTHTCPPCPAPELFGQDSVMLFPPKPKDTLMISRTPEVTCVVVDVSHEDPEVKFNWYVDGVEVHNAKTKPREEQENSTYRVVSVLTVLHQDWLNGKEYKCKVHNKALPHPIEKTISKAKGQPREPQVYTLPPSRDELTKNQVSLTCLVKGFYPSDIAVEWESNGQPENNYKTTPPVLDSDGSFFLYSKLTVDKSRWQQGNVFSCSVMHEALHNHYTQKSLSLSP light: not shown |  |  |  |  | 0.011 fold of IL6R-G1d/IL6R-L | 0.018 fold of IL6R-G1d/IL6R-L | 0.0015 fold of IL6R-G1d/IL6R-L | 0.003 fold of IL6R-G1d/IL6R-L | 2.07 fold of IL6R-G1d/IL6R-L | 12.5 % of IL6R-G1d/IL6R-L | 169 % of IL6R-G1d/IL6R-L
IL6R-P735/IL6R-L (antibody, human IgG1, kappa) heavy: QVQLQESGPGLVKPSETLSLTCAVSGHSISHDHAWSWVRQPPGEGLEWIGFISYSGITNYNPSLQGRVTISRDNSKNTLYLQMNSLRAEDTAVYYCARSLARTTAMDYWGEGTLVTVSSASTKGPSVFPLAPSSKSTSGGTAALGCLVKDYFPEPVTVSWNSGALTSGVHTFPAVLQSSGLYSLSSVVTVPSSSLGTQTYICNVNHKPSNTKVDKKVEPKSCDKTHTCPPCPAPELFGQDSVMLFPPKPKDTLMISRTPEVTCVVVDVSPEDPEVKFNWYVDGVEVHNAKTKPREEQENSTYRVVSVLTVLHQDWLNGKEYKCKVSNKALPHPIEKTISKAKGQPREPQVYTLPPSRDELTKNQVSLTCLVKGFYPSDIAVEWESNGQPENNYKTTPPVLDSDGSFFLYSKLTVDKSRWQQGNVFSCSVMHEALHNHYTQKSLSLSP light: not shown |  |  |  |  | 0.007 fold of IL6R-G1d/IL6R-L | 0.021 fold of IL6R-G1d/IL6R-L | 0.0013 fold of IL6R-G1d/IL6R-L | 0.005 fold of IL6R-G1d/IL6R-L | 2.26 fold of IL6R-G1d/IL6R-L | 14.3 % of IL6R-G1d/IL6R-L | 173 % of IL6R-G1d/IL6R-L
IL6R-P737/IL6R-L (antibody, human IgG1, kappa) heavy: QVQLQESGPGLVKPSETLSLTCAVSGHSISHDHAWSWVRQPPGEGLEWIGFISYSGITNYNPSLQGRVTISRDNSKNTLYLQMNSLRAEDTAVYYCARSLARTTAMDYWGEGTLVTVSSASTKGPSVFPLAPSSKSTSGGTAALGCLVKDYFPEPVTVSWNSGALTSGVHTFPAVLQSSGLYSLSSVVTVPSSSLGTQTYICNVNHKPSNTKVDKKVEPKSCDKTHTCPPCPAPELLGQDSVMLFPPKPKDTLMISRTPEVTCVVVDVSPEDPEVKFNWYVDGVEVHNAKTKPREEQENSTYRVVSVLTVLHQDWLNGKEYKCKVHNKALPHPIEKTISKAKGQPREPQVYTLPPSRDELTKNQVSLTCLVKGFYPSDIAVEWESNGQPENNYKTTPPVLDSDGSFFLYSKLTVDKSRWQQGNVFSCSVMHEALHNHYTQKSLSLSP light: not shown |  |  |  |  | 0.006 fold of IL6R-G1d/IL6R-L | 0.011 fold of IL6R-G1d/IL6R-L | 0.002 fold of IL6R-G1d/IL6R-L | 0.005 fold of IL6R-G1d/IL6R-L | 0.802 fold of IL6R-G1d/IL6R-L | 7.2 % of IL6R-G1d/IL6R-L | 99.5 % of IL6R-G1d/IL6R-L
